Assay results from patent publication US20190030156A1.

Molecular target: prefusion F hybrid: RSV F (S155C/S290C plus A102C/I148C) with transmembrane domain and cytoplasmic tail of hMPV F, on VLPs (human respiratory syncytial virus; human metapneumovirus) (UniProt P12568)
Assay: dot blot of VLPs, 5C4 signal normalized over Palivizumab, 3 independent experiments

5C4, a mouse monoclonal antibody (mAb) specific for the prefusion-only antigen site Φ
fold recognition relative to postfusion F: 19.2 fold
